Test results: US20230295331A1 (PROMAB BIOTECHNOLOGIES, published 2023)
“And” between values parts separate entries of the source, which are not always exact repeats. Equal entries are not always repeated.

What was measured:
[1] = biological target: T1, CS1 protein (SLAM family member 7, CD319) on cells (human, UniProt Q9NQ25 23-335); assay: binding titration by flow cytometry on CHO-CS1 cells
T1 construct: The cells are CHO-CS1 (bought from BPS Bioscience), Hela-CS1 (transduced with CS1 cDNA lentivirus) and the myeloma lines, which carry CS1 of their own; also called CHO-CS1 cells; Hela-CS1 cells
T1 sequence: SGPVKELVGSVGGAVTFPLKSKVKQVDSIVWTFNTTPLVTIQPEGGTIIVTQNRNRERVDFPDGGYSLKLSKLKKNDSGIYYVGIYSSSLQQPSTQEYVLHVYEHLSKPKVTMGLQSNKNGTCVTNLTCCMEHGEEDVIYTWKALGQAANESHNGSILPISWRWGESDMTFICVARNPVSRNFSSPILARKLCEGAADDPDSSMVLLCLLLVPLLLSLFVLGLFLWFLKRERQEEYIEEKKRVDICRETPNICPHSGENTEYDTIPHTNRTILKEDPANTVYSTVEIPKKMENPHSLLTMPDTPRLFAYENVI

[2] = biological target: T1, CS1 protein (SLAM family member 7, …); assay: flow cytometry binding titration on CHO-CS1 cells

Kd [1]: 5.3 nM and 0.8 µg/mL
EC50 (read off the curve) [2]: ~0.7 µg/mL
B1: mouse monoclonal anti-human CS1 antibody, clone 7A8D5 (antibody, V domains shown)
VH: VQLQQSGPEVVRPGVSVKISCKGSGYTFTDYAIHWVKQSHAKSLEWIGVINTYNGNTNYNQKFKGKATMTVDKSSSTAYMELARLTSEDSAIYYCTRTGYYYGPSHYFDYWGQGTTLTVSS
VL: DIVLTQSPASLTVSLGQRATMSCRASKSVSTSGYSYVHWYQQKPGQPPKLLIYLASNLESGVPARFSASGSGTDFTLNIHPVEEEDAATYYCQHSRELPWTFGGGTKLEIKR
notes: Mouse monoclonal antibody from a hybridoma, purified on a Protein G column; also called anti-CS1 antibody clone 7A8D5; CS1 clone 7A8D5
